Consider 2 molecules from paper PMC7969121, “Structural and Kinetic Characterization of Hyperthermophilic NADH-Dependent Persulfide Reductase from Archaeoglobus fulgidus” (Archaea, 2021).

For one data set, the target named is T1, AfNpsr; A. fulgidus Npsr (Archaeoglobus fulgidus, UniProt O29847).
T1 construct: gene AF_0400; codon-optimized full-length gene in pET21b+, C-terminal His6-tag, E. coli BL21(DE3); FAD added; FAD domain 1-448, rhodanese domain 449-550
Briefly: X-ray crystal structure, […] Å. It is filed as binding. The settings on record: tightly bound catalytic CoA in active site near Cys 42.

Substrate in data set [1]: CC(C)(COP(=O)(O)OP(=O)(O)OC[C@H]1O[C@@H](n2cnc3c(N)ncnc32)[C@H](O)[C@@H]1OP(=O)(O)O)[C@@H](O)C(=O)NCCC(=O)NCCSS
Kind of data set: NADH oxidation at A340, Michaelis-Menten fit. It is filed as biochemical, Archaeoglobus fulgidus. To be noted: 100 μM NADH, aerobic, 50 mM sodium phosphate pH 7.5, 70°C, persulfide made in situ from disulfide + 2-fold sodium sulfide, oxidase background not subtracted. The text has this: (§1) NADH oxidation at A340, Michaelis-Menten fit on AfNpsr; A. fulgidus Npsr

Substrate in data set [2]: N[C@@H](CSS)C(=O)O
Kind of data set: NADH oxidation at A340, Michaelis-Menten fit. It counts as biochemical, Archaeoglobus fulgidus. The settings on record: 100 μM NADH, aerobic, 50 mM sodium phosphate pH 7.5, 70°C, persulfide made in situ from disulfide + 2-fold sodium sulfide, oxidase background not subtracted.
Excerpt: as §1

Substrate in data set [3]: O=C(O)c1cc(SSc2ccc([N+](=O)[O-])c(C(=O)O)c2)ccc1[N+](=O)[O-]
Kind of data set: TNB formation at A412, Michaelis-Menten fit. It is filed as biochemical, Archaeoglobus fulgidus. To be noted: 100 μM NADH, aerobic, 50 mM sodium phosphate pH 7.5, 70°C, buffer background subtracted. The source says:
TNB formation at A412, Michaelis-Menten fit on AfNpsr; A. fulgidus Npsr

Substrate in data set [4]: NC(=O)C1=CN([C@@H]2O[C@H](COP(=O)(O)OP(=O)(O)OC[C@H]3O[C@@H](n4cnc5c(N)ncnc54)[C@H](O)[C@@H]3O)[C@@H](O)[C@H]2O)C=CC1
Briefly: NADH oxidase, A340, Michaelis-Menten fit. To be noted: aerobic, O2 as acceptor, no di-, per- or polysulfide, 50 mM sodium phosphate pH 7.5, 70°C. It is filed as biochemical, Archaeoglobus fulgidus. The text has this: NADH oxidase, A340, Michaelis-Menten fit on AfNpsr; A. fulgidus Npsr

What is called Km is the concentration of substrate that gives half-maximal velocity. A word on the kcat: it is the number of substrate molecules converted per active site and unit of time at saturation. What is called kcat/Km is the second-order rate constant that governs catalysis at low substrate concentration.

Turning to `CC(C)(COP(=O)(O)OP(=O)(O)OC[C@H]1O[C@@H](n2cnc3c(N)ncnc32)[C@H](O)[C@@H]1OP(=O)(O)O)[C@@H](O)C(=O)NCCC(=O)NCCS` [CoA], the “X-ray crystal structure, 3.1 Å” value at AfNpsr; A. fulgidus Npsr is recorded as “In AfNpsr, CoA is deeply buried”.

B1: AfNpsr; A. fulgidus Npsr (Archaeoglobus fulgidus DSM 4304) (protein)
chain: MNVVVIGGGAAGLKAASRIRRKDGDASITVVEAGKYVSLGRCGLPYYVGGLVHEVDNLRETTYGAVRDEAYFKKLKNIDVLTETVATEIDRSRKTVKIVRNGSEDELNYDYLVIATGARPAKPPIEGIEAEGVVTLTSAEEAEKIIEMWEEGAEKAVVIGAGFIGLESAEALKNLDMEVTVIEMMDRVAPAMLDREMAVLVENHLREKGVNVVTSTRVEKIVSQDDKVRAVIANGKEYPADVVVVATGIKPNSELAEKAGLKIGETGAIWVDEYMRTSDESIYAGGDCVETTCLVTGKKIIAPFGDVANKQGRVIGENITGGRAVFPGVIRTAIFKVFDFTAASAGVNEQMAKEAGLDYFTVIAPSPDRAHYYPQANYIRLKLIVEKGSWRVIGAQGVGMGEVAKRIDVLSTAIQAGMTIDQLANLDLAYAPPYSPALDPVITIANVAMNKRDGLFEGINVFELKEKLEKEDIVILDVRSEEEFKTRRIESEKVIHIPILELRERLDEIPRDKEIVVVCAIGLRSFEASRILKHAGFEKVKILEGGMAFWF
notes: codon-optimized full-length gene in pET21b+, C-terminal His6-tag, E. coli BL21(DE3); FAD added; FAD domain 1-448, rhodanese domain 449-550
Take B1: the Km turned out to be 547 ± 41 µM in data set [1], 3410 ± 630 µM in data set [2], 743 ± 196 µM in data set [3] and 20.6 ± 5.1 µM in data set [4]. Also, the kcat in data set [1] came to 13.2 ± 0.3 s⁻¹; in data set [2], 230 ± 23 s⁻¹; in data set [3], 2.44 ± 0.14 s⁻¹; in data set [4], 7.15 ± 0.51 s⁻¹. Also, the kcat/Km in data set [1] was 24100 ± 1400 M⁻¹ s⁻¹; in data set [2], 67600 ± 11000 M⁻¹ s⁻¹; in data set [3] it was 3280 ± 480 M⁻¹ s⁻¹; in data set [4], 347000 ± 75000 M⁻¹ s⁻¹.
